Data as given in paper PMC3158780.

Target: insoluble type I collagen (UniProt P02453)
Assay: co-sedimentation; batch binding to 5 mg insoluble substrate; protein 15 µg/ml in 80 µl buffer A (50 mM Tris-HCl, 10 mM CaCl2, 3 M NaCl, pH 8.0), 0°C, 60 min; supernatant after centrifugation on SDS-PAGE

- percent bound: 50%
Substance: isolated CTE domain of SptA (CTE*) (domain or fragment)
